From patent US9249224B2 (RINAT NEUROSCIENCE CORP., priority 2011, dated 2016) come the findings set out here.

The target of one experiment is T1, hGHR-hFc (Homo sapiens, UniProt P10912).
T1 construct: purchased R&D Systems 1210-GR
The experiment is described as follows: Biacore kinetics and affinity, immobilized hGHR-hFc, Fab analyte, 37° C. Conditions: hGHR-hFc captured on anti-human Fc surface. Format: binding. The protocol: (§1) The affinity of GHR antibody SS1 Fab to human and cyno GHR was measured on a Biacore™ T200 biosensor (GE Lifesciences™, Piscataway N.J.).
An anti-human Fc sensor chip was prepared by activating all flow cells of a Biacore™ CM4 sensor chip with a 1:1 (v/v) mixture of 400 mM EDC and 100 mM NHS for 7 minutes, at a flow rate of 10 μL/min. An anti-human Fc reagent (goat F(ab′)2 fragment to human IgG Fc, Cappel Catalog #55053) was diluted to 60 μg/mL in 10 mM sodium acetate pH 5.0 and injected on all flow cells for 7 minutes at 20 μL/min. All flow cells were blocked with 100 mM ethylenediamine in 150 mM borate buffer pH 8.5 for 7 minutes at 10 μL/min.
The kinetics assay was run using a methodology with varying dissociation times as described in Katsamba et al., supra. The hGHR-hFc fusion protein (R&D Systems™ Catalog#1210-GR) was captured onto downstream flow cells at 2 μg/mL at a flow rate of 10 μL/min for 30 seconds, 1 minute and 2 minutes on flow cells 2, 3 and 4, respectively. Flow cell 1 was used as a reference surface. […] After the analyte injection, dissociation was monitored for 30 minutes (400 nM Fab cycle) or 60 seconds (all other cycles) followed by regeneration with two 30-second injections of 75 mM phosphoric acid. A 5-membered dilution series of Fab was analyzed using this method, where the top concentration was 400 nM and the dilution factor was 3-fold. […]

The next experiment addresses T2, human GHR (Homo sapiens, UniProt P10912).
T2 construct: his-tagged monomers of amino acids 31-235 of the extracellular domain of the human or cyno GHR
T2 sequence (P10912 49-253): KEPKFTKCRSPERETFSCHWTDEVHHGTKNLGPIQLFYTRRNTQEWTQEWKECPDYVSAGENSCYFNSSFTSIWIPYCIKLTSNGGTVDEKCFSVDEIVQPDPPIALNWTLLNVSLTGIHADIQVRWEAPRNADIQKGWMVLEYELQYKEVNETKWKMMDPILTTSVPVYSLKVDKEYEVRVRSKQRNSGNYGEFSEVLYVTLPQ
The experiment is described as follows: Biacore kinetics and affinity, immobilized Fab, human GHR analyte, 37° C. Format: binding. Conditions: Fab captured on anti-human kappa surface. The protocol:
as §1
(§2) An anti-human kappa sensor chip was prepared by activating all flow cells of a Biacore™ CM4 sensor chip with a 1:1 (v/v) mixture of 400 mM EDC and 100 mM NHS for 7 minutes, at a flow rate of 10 μL/min. An anti-human kappa reagent (goat F(ab′)2 fragment anti-human kappa, Southern Biotech Catalog #2063-01) was diluted to 50 μg/mL in 10 mM sodium acetate pH 4.5 and injected on all flow cells for 7 minutes at 20 μL/min. All flow cells were blocked with 100 mM ethylenediamine in 150 mM borate buffer pH 8.5 for 7 minutes at 10 μL/min.
(§3) The kinetics assay was run using a methodology with varying dissociation times as described in Katsamba et al., supra. Fabs were captured onto downstream flow cells (flow cells 2, 3 and 4) at 2 μg/mL at a flow rate of 10 μL/min for 2 minutes. Different Fabs were captured on each flow cell. Flow cell 1 was used as a reference surface. […] After the analyte injection, dissociation was monitored for 30 minutes (for the 133 nM and 400 nM GHR cycles) or 60 seconds (all other cycles) followed by regeneration with three 30-second injections of 10 mM glycine pH 1.7. A 6-membered dilution series of GHR was analyzed using this method, where the top concentration was 400 nM and the dilution factor was 3-fold. […]

Another experiment deals with cyno GHR. The experiment is described as follows: Biacore kinetics and affinity, immobilized Fab, cyno GHR analyte, 37° C. It is filed as binding, cynomolgus monkey. Conditions: Fab captured on anti-human kappa surface. As to the method:
as §1, §2, §3

T1 sequence (P10912 with tags, fused parts or gaps limits assumed): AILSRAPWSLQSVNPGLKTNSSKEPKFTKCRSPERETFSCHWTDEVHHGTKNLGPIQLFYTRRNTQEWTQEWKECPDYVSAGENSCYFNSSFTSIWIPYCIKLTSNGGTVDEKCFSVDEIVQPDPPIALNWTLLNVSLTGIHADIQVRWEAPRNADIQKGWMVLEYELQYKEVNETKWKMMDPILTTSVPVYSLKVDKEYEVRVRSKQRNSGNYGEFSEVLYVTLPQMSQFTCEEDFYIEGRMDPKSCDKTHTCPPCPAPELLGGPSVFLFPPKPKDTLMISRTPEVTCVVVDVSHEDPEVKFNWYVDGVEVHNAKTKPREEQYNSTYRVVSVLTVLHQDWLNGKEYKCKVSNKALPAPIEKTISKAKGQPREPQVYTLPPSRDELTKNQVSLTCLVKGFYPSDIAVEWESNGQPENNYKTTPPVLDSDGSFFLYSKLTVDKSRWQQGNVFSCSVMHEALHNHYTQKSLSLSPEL
Chain of cyno GHR (as listed by the source): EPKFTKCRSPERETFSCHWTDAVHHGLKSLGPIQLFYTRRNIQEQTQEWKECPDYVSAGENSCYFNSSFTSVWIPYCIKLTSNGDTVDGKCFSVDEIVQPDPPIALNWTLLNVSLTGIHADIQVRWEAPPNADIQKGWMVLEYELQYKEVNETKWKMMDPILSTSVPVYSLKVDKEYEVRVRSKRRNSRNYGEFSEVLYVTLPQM

B1: SS1 Fab: Fab of GHR antibody SS1 (antibody, V domains shown)
VH: EVQLVESGGGLVKPGGSLRLSCAASGFTFSDAWMDWVRQAPGKGLEWVAEIRSKANYHATYYAESVKGRFTISRDDSKNTLYLQMNSLKTEDTAVYYCTLIRDYWGQGTLVTVSS
VL: EIVLTQSPGTLSLSPGERATLSCTATSSVSSSYLNWYQQKPGQAPRLLIYSTSNLASGIPDRFSGSGSGTDFTLTISRLEPEDFAVYYCHQYHRSTPTFGGGTKVEIK
In the case of B1, the “ka” value with hGHR-hFc worked out at 374000 M⁻¹ s⁻¹; in the experiment with human GHR, 138000 M⁻¹ s⁻¹; in the experiment on cyno GHR it was 182000 M⁻¹ s⁻¹. The results for the “kd” value with hGHR-hFc, with human GHR and at cyno GHR were 0.000359 s⁻¹, 0.000215 s⁻¹ and 0.000576 s⁻¹, respectively.
